Positions count from the first letter of the chain named. Names and notes keep the numbering of the source. Each block holds one binder with its values, some of them ahead of it.
Experiments:
[1] = molecular target: T1, cynomolgus monkey FcγRIIa2 extracellular domain with C-terminal His-tag (cynomolgus monkey); experiment: SPR, KD(SG1)/KD(variant)
T1 construct: also called cyno FcgRIIa2; cynoFcγRIIa2
T1 chain: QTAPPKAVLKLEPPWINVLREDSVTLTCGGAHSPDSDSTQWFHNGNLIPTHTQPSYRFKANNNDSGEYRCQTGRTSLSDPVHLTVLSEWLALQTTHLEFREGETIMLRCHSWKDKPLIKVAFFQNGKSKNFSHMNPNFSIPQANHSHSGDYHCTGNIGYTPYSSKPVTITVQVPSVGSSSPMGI
Experimental: (§1) The kinetic analysis of interactions between these antibodies and FcγR was carried out using BIACORE® T200 or BIACORE® 4000 (GE Healthcare). HBS-EP+ (GE Healthcare) was used as the running buffer, and the measurement temperature was set to 25° C. […] After the measurement, the antibody captured on the chip was washed off by allowing reaction with 10 mM glycine-HCl, pH1.5 and 25 mM NaOH so that the chip was regenerated and used repeatedly. The sensorgrams obtained as measurement results were analyzed by the 1:1 Langmuir binding model using the BIACORE® Evaluation Software to calculate the binding rate constant ka (L/mol/s) and dissociation rate constant kd (1/s), and the dissociation constant KD (mol/L) was calculated from these values. […] Regarding such interactions, KD values were calculated using the following 1:1 binding model described in BIACORE® T100 Software Handbook BR1006-48 Edition AE.

[2] = molecular target: T2, cynomolgus monkey FcγRIIIaS extracellular domain with C-terminal His-tag (cynomolgus monkey, UniProt Q8SPW2 21-206 at identity 1.00)); experiment: SPR, KD(SG1)/KD(variant)
T2 construct: also called cyno FcgRIIIaS; cynoFcγRIIIaS
T2 chain: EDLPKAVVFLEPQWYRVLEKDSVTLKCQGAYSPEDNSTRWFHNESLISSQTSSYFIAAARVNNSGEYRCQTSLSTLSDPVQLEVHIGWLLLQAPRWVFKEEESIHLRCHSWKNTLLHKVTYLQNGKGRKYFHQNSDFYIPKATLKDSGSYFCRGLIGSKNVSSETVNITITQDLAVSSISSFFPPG
Experimental: as §1

[3] = molecular target: T3, human FcγRIIIaV extracellular domain with C-terminal His-tag (human, UniProt P08637 17-208); experiment: SPR, KD(SG1)/KD(variant)
T3 construct: also called human FcgRIIIaV
Experimental: as §1
T3 sequence (P08637 17-208 F176V): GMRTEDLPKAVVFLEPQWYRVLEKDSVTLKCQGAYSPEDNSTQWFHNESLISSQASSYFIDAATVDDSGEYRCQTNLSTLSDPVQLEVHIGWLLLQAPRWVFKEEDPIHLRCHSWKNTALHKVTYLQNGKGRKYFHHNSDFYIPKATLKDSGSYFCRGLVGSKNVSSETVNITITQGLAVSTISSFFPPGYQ

[4] = molecular target: T2, cynomolgus monkey FcγRIIIaS …; experiment: SPR, antibody captured, FcγR analyte
[5] = molecular target: T4, cynomolgus monkey FcγRIIa1 extracellular domain with C-terminal His-tag (cynomolgus monkey); experiment: SPR (Biacore), KD of SG1 / KD of variant
T4 construct: also called cyno FcgRIIa1; cynoFcγRIIa1
T4 chain: T1 chain with T95P, A121T, K127I, S128A, N130K, N135D, Q142R

[6] = molecular target: T5, human FcγRIIaH extracellular domain with C-terminal His-tag (human, UniProt P12318 34-217); experiment: SPR (Biacore), KD of SG1 / KD of variant
T5 construct: also called human FcgRIIaH; FcγRIIa (type H)
T5 sequence: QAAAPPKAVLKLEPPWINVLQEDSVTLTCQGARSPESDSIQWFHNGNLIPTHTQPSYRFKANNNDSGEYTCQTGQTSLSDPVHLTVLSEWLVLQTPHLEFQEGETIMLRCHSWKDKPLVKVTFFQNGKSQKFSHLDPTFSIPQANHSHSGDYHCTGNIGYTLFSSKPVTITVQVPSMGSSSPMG

[7] = molecular target: T6, cynomolgus monkey FcγRIIIaS extracellular domain with C-terminal His-tag (cynomolgus monkey, UniProt Q8SPW2 21-206 at identity 1.00)); experiment: SPR (Biacore), antibody captured, FcgR analyte
T6 construct: also called cyno FcgRIIIaS; cynoFcγRIIIaS
T6 chain: T2 chain

[8] = molecular target: T7, cynomolgus monkey FcγRIIa3 extracellular domain with C-terminal His-tag (cynomolgus monkey); experiment: SPR (Biacore), KD of SG1 divided by KD of variant
T7 construct: also called cyno FcgRIIa3; cynoFcγRIIa3
T7 chain: T1 chain with K127I, N130K, H133P, Q142R
Experimental: as §1

[9] = molecular target: T8, human FcγRIIaR extracellular domain with C-terminal His-tag (human, UniProt P12318 34-217); experiment: SPR (Biacore), KD of SG1 divided by KD of variant
T8 construct: also called human FcgRIIaR; FcγRIIa (type R)
T8 chain: T5 sequence with H134R
Experimental: as §1

[10] = molecular target: T9, cynomolgus monkey FcγRIIa2 extracellular domain with C-terminal His-tag (cynomolgus monkey); experiment: SPR (Biacore), KD of SG1 divided by KD of variant
T9 construct: also called cyno FcgRIIa2; cynoFcγRIIa2
T9 chain: T1 chain
Experimental: as §1

[11] = molecular target: T10, cynomolgus monkey FcγRIIb extracellular domain with C-terminal His-tag (cynomolgus monkey); experiment: SPR (Biacore), KD of SG1 divided by KD of variant
T10 construct: also called cyno FcgRIIb; cynoFcγRIIb
T10 chain: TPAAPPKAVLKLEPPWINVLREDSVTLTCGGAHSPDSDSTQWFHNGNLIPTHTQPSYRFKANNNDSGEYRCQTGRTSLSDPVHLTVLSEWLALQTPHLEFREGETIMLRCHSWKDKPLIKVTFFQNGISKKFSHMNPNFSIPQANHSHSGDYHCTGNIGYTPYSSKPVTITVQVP
Experimental: as §1

[12] = molecular target: T11, human FcγRIIb extracellular domain with C-terminal His-tag (human, UniProt P31994 43-217); experiment: SPR (Biacore), KD of SG1 divided by KD of variant
T11 construct: also called human FcgRIIb
T11 sequence: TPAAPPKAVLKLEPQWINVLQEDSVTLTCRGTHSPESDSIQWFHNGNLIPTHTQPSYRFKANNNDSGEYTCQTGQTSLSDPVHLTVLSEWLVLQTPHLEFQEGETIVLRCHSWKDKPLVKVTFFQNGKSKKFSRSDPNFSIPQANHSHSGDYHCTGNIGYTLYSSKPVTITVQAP
Experimental: as §1

[13] = molecular target: T12, cynomolgus monkey FcγRIIa1 extracellular domain with C-terminal His-tag (cynomolgus monkey); experiment: SPR (Biacore), antibody captured, FcgR as analyte
T12 construct: also called cyno FcgRIIa1; cynoFcγRIIa1
T12 chain: T1 chain with T95P, A121T, K127I, S128A, N130K, N135D, Q142R
Experimental: as §1

[14] = molecular target: T10, cynomolgus monkey FcγRIIb extracellular …; experiment: SPR (Biacore), antibody captured, FcgR as analyte
Experimental: as §1

[15] = molecular target: T13, human FcγRIIIaV extracellular domain with C-terminal His-tag (human, UniProt P08637 17-208); experiment: SPR (Biacore), antibody captured, FcgR as analyte
T13 construct: also called human FcgRIIIaV
Experimental: as §1
T13 sequence (P08637 17-208 F176V): as the sequence (P08637 17-208 F176V) above

[16] = molecular target: T9, cynomolgus monkey FcγRIIa2 …; experiment: SPR (Biacore), antibody captured, FcgR as analyte
Experimental: as §1

[17] = molecular target: T14, human FcγRIIaH extracellular domain with C-terminal His-tag (human, UniProt P12318 34-217); experiment: SPR (Biacore), antibody captured, FcgR as analyte
T14 construct: also called human FcgRIIaH; FcγRIIa (type H)
T14 sequence: T5 sequence
Experimental: as §1

[18] = molecular target: T15, cynomolgus monkey FcγRIIa2 extracellular domain with C-terminal His-tag (cynomolgus monkey); experiment: SPR (Biacore), KD of SG1 / KD of variant
T15 construct: also called cyno FcgRIIa2; cynoFcγRIIa2
T15 chain: T1 chain

[19] = molecular target: T16, cynomolgus monkey FcγRIIb extracellular domain with C-terminal His-tag (cynomolgus monkey); experiment: SPR (Biacore), KD of SG1 / KD of variant
T16 construct: also called cyno FcgRIIb; cynoFcγRIIb
T16 chain: T10 chain

[20] = molecular target: T17, human FcγRIIaR extracellular domain with C-terminal His-tag (human, UniProt P12318 34-217); experiment: SPR (Biacore), KD of SG1 / KD of variant
T17 construct: also called human FcgRIIaR; FcγRIIa (type R)
T17 chain: T5 sequence with H134R

[21] = molecular target: T18, cynomolgus monkey FcγRIIa3 extracellular domain with C-terminal His-tag (cynomolgus monkey); experiment: SPR (Biacore), antibody captured, FcgR analyte
T18 construct: also called cyno FcgRIIa3; cynoFcγRIIa3
T18 chain: T1 chain with K127I, N130K, H133P, Q142R

[22] = molecular target: T5, human FcγRIIaH extracellular domain …; experiment: SPR (Biacore), antibody captured, FcgR analyte

B1: MS1032LO06-MY352 (antibody, human IgG1, kappa)
heavy: QVTLKESGPVLVKPTETLTLTCTVSGIDLSHDDISWVRQAPGKGLEWVGIISYAGSTYYASWAKGRLTISKDTSKNQVVLTMTNMDPVDTATYYCARGVPAYSHGGDLWGQGTLVTVSSASTKGPSVFPLAPSSKSTSGGTAALGCLVKDYFPEPVTVSWNSGALTSGVHTFPAVLQSSGLYSLSSVVTVPSSSLGTQTYICNVNHKPSNTKVDKKVEPKSCDKTHTCPPCPAPELLNGPSVFLFPPKPKDTLMISRTPEVTCVVVDVSDEDPEVKFNWYVDGVEVHNAKTKPREEQYNSTYRVVSVLTVLHRDWLNGKEYKCKVSNKALPKPIEKTISKAKGQPREPQVYTLPPSREEMTKNQVSLTCLVKGFYPSDIAVEWESNGQPENNYKTTPPVLDSDGSFFLYSKLTVRKSRWQQGNVFSCSVMHEALHNHYTQKSLSLSP
light: DIVMTQSPATLSLSPGERATLSCTSSQSVYHANWLSWFQQKPGQPPKLLIYWASTLAYGVPSRFSGSGSGTDFTLTISSLQPEDAATYYCAGGYGGGRYAFGQGTKVEIKRTVAAPSVFIFPPSDEQLKSGTASVVCLLNNFYPREAKVQWKVDNALQSGNSQESVTEQDSKDSTYSLSSTLTLSKADYEKHKVYACEVTHQGLSSPVTKSFNRGEC
notes: MY201 with Q311R/D413R; also called M103205H795-MY352; copies: 2 + 2
- KD fold (SG1 = 1) [1]: 3.3 fold
- KD fold (SG1 = 1) [2]: 0.07 fold
- KD fold (SG1 = 1) [3]: 0.04 fold
- Kd [4]: 4000 nM

B2: M103205H795-MY472/M103202L889-SK1 (antibody)
chain 1: B1 heavy with A233S, N238T, R313Q, R415D
chain 2: B1 light
- KD fold (SG1 = 1) [5]: 1.3 fold
- KD fold (SG1 = 1) [6]: 2.8 fold
- Kd [7]: 2300 nM

B3: M103205H795-MY283 / M103202L889-SK1 (antibody, human IgG1, kappa, name in EU numbering)
heavy: B1 heavy with N238T, Q297L, R313Q, R415D
light: B1 light
- KD fold (SG1 = 1) [8]: 3.9 fold
- KD fold (SG1 = 1) [9]: 3.1 fold

B4: M103205H795-MY527 / M103202L889-SK1 (antibody, human IgG1, kappa, name in EU numbering)
heavy: B1 heavy with A233T, N238T, Q297L, R313Q, R415D
light: B1 light
- KD fold (SG1 = 1) [10]: 3.9 fold
- KD fold (SG1 = 1) [11]: 5.3 fold
- KD fold (SG1 = 1) [12]: 3.3 fold

B8: M103205H795-MY388 (first row so labelled: G236L/H268D/Q295L/K326T/A330K) / M103202L889-SK1 (antibody, human IgG1, kappa, name in EU numbering)
heavy: B1 heavy with N238L, Q297L, R313Q, K328T, R415D
light: B1 light
notes: The label MY388 is printed for two different variants; also called MY388 (first of two rows with this label)
- Kd [14]: 1600 nM
- Kd [15]: 2.4 nM

B9: M103205H795-MY523 / M103202L889-SK1 (antibody, human IgG1, kappa, name in EU numbering)
heavy: B1 heavy with A233G, N238T, S241V, Q297L, R313Q, R415D
light: B1 light
- KD fold (SG1 = 1) [9]: 5.2 fold
- Kd [14]: 480 nM

B10: M103205H795-MY446/M103202L889-SK1 (antibody, human IgG1, kappa)
heavy: B1 heavy with P234H, N238T, R313Q, R415D
light: B1 light
notes: Substitutions in EU numbering on SG1
- KD fold (SG1 = 1) [5]: 1.5 fold

B11: M103205H795-MY521 / M103202L889-SK1 (antibody)
heavy: B1 heavy with P234D, N238T, Q297L, R313Q, R415D
light: B1 light
notes: 'Q235L' copied as printed, probably Q295L
- KD fold (SG1 = 1) [11]: 2.3 fold
- KD fold (SG1 = 1) [9]: 3.7 fold
- KD fold (SG1 = 1) [12]: 3.1 fold
- Kd [16]: 3300 nM
- Kd [17]: 290 nM

B12: M103205H795-MY531 / M103202L889-SK1 (antibody, human IgG1, kappa, name in EU numbering)
heavy: B1 heavy with L236W, N238T, R313Q, K328T, R415D
light: B1 light
- KD fold (SG1 = 1) [10]: 5.5 fold

Continued, values first:

- KD fold (SG1 = 1) [5]: 2.5 fold
- Kd [7]: 1300 nM
B5: M103205H795-MY450/M103202L889-SK1 (antibody, human IgG1, kappa)
heavy: B1 heavy with P234M, N238T, R313Q, R415D
light: B1 light
notes: as for B10

- KD fold (SG1 = 1) [8]: 5.2 fold
- Kd [13]: 930 nM
B6: M103205H795-MY380 / M103202L889-SK1 (antibody, human IgG1, kappa, name in EU numbering)
heavy: B1 heavy with D270E, R313Q, P398K, R415D
light: B1 light

- KD fold (SG1 = 1) [11]: 5 fold
- Kd [14]: 300 nM
B7: M103205H795-MY529 / M103202L889-SK1 (antibody, human IgG1, kappa, name in EU numbering)
heavy: B1 heavy with L236W, N238T, Q297L, R313Q, R415D
light: B1 light

- KD fold (SG1 = 1) [18]: 5.1 fold
- KD fold (SG1 = 1) [19]: 6.7 fold
- KD fold (SG1 = 1) [20]: 5.2 fold
- Kd [21]: 2500 nM
- Kd [22]: 900 nM
B13: M103205H795-MY475/M103202L889-SK1 (antibody)
heavy: B1 heavy with A233W, N238T, R313Q, R415D
light: B1 light
notes: as for B10
